{"source": "paper PMC5003112", "about": "(Nature chemical biology, 2016)", "proteins": {"B1": {"name": "Escherichia coli NudC (crystallization construct) (enzyme, E. coli)", "chain": "MDRIIEKLDHGWWVVSHEQKLWLPKGELPYGEAANFDLVGQRALQIGEWQGEPVWLVQQQRRHDMGSVRQVIDLDVGLFQLAGRGVQLAEFYRSHKYCGYCGHEMYPSKTEWAMLCSHCRERYYPQIAPCIIVAIRRDDSILLAQHTRHRNGVHTVLAGFVEVGETLEQAVAREVMEESGIKVKNLRYVTSQPWPFPQSLMTAFMAEYDSGDIVIDPKELLEANWYRYDDLPLLPPPGTVARRLIEDTVAMCRAEYE"}, "B2": {"name": "E. coli NudC Y188A (enzyme, E. coli K-12, UniProt P32664 1-257, looked up)", "chain": "B1 chain with Y188A"}, "B3": {"name": "E. coli NudC Y188Q (enzyme, E. coli K-12, UniProt P32664 1-257, looked up)", "chain": "B1 chain with Y188Q"}}, "key": {"crystal structure": {"molecular_target": "the molecule itself", "assay": "crystal structure"}, "SEC": {"molecular_target": "the molecule itself", "assay": "SEC"}}, "note": "Where a chain is given by its changes, count along the chain named. Names and notes keep the numbering of the source."}
{"protein": "B1", "values": [{"measurement": "stoichiometry N", "setting": "crystal structure", "result": 2}]}
{"protein": "B2", "values": [{"measurement": "binding result", "setting": "SEC", "result": "binds"}]}
{"protein": "B3", "values": [{"measurement": "binding result", "setting": "SEC", "result": "binds"}]}
